Three molecules from US20220089663A1, “PROTEINS AND FLUOROPHORE-CONTAINING COMPOUNDS SELECTIVE FOR NaV1.7” (MEMORIAL SLOAN KETTERING CANCER CENTER, priority 2019, published 2022) can be followed below.

Read-outs that look alike come from different tables or passages of the source. A value given as a limit tells only on which side of the number the result lay.

Some targets named below: Cav1.1; Cav1.3; Cav2.2; Kv2.1; Nav1.8; Nav1.9; hNav1.1 (human), P35498; hNav1.2 (human), Q99250; hNav1.3 (human), Q9NY46; hNav1.4 (human), P35499; hNav1.5 (human), Q14524.
Experiment in all cases: cell-based or functional assay
Test [1] has as its target hNav1.7 (human), Q15858.
The next test deals with T1, hERG, Q12809.
T1 chain: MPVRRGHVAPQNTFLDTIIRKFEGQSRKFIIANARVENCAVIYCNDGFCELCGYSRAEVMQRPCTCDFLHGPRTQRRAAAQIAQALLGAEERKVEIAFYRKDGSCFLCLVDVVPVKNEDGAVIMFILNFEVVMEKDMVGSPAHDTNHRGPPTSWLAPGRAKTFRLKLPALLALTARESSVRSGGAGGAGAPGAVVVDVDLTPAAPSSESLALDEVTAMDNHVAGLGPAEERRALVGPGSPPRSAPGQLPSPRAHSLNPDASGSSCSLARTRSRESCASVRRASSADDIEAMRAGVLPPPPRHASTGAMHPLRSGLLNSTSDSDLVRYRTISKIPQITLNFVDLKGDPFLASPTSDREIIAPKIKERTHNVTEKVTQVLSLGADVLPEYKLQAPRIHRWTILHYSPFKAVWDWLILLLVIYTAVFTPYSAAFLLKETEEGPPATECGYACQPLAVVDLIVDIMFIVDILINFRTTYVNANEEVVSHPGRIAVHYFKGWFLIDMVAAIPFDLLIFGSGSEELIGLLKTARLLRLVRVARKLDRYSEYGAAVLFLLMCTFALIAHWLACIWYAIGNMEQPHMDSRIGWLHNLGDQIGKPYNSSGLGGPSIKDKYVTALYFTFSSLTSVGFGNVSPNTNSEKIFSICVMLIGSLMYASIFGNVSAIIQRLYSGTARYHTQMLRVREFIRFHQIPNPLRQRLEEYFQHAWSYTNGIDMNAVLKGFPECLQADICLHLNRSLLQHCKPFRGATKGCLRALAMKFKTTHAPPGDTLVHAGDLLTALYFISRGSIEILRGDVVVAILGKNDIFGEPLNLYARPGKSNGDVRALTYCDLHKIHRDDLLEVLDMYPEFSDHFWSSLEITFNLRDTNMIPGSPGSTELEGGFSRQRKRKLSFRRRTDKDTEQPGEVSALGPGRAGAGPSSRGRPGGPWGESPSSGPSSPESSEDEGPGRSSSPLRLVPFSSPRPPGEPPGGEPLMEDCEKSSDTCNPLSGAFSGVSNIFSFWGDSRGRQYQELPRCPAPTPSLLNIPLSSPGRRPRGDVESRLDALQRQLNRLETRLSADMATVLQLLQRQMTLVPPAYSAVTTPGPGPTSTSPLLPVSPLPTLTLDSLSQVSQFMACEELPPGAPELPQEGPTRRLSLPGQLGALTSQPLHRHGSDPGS

In test [2] the target is hNav1.6 (human), Q9UQD0.
The target in test [3] is hNav1.6 (human), Q9UQD0. The source holds these as a separate data set.
The target of test [4] is hNav1.7 (human), Q15858. This is another data set of the same source.

YCQKFLWTCDSERPCCEGLVCRLWCKIN (modifications not checked) [Hsp1a-FL] had an IC50, automated whole-cell patch clamp with hNav1.7 (human), Q15858 [1] of 0.062 µM.

Regarding GNDCLGFWSACNPKNDKCCANLVCSSKHKWCKGKL (modifications not checked) [Hs1a], the IC50 in the test with Cav1.1, in the test with Cav1.3, in the test with Cav2.2, with Kv2.1, in the test with Nav1.8 and with Nav1.9 was above 3 µM each time. Also, the IC50 with hERG, Q12809 is above 3 µM. The IC50, automated patch clamp is 0.0194 µM with hNav1.1 (human), P35498; 0.0822 µM with hNav1.2 (human), Q99250; 0.107 µM in the test with hNav1.3 (human), Q9NY46; above 3 µM in the test with hNav1.4 (human), P35499; above 3 µM in the test with hNav1.5 (human), Q14524; 0.168 µM with hNav1.6 (human), Q9UQD0 [2]. Further, the IC50, automated patch clamp with hNav1.7 (human), Q15858 [1] was 0.0457 µM; with hNav1.6 (human), Q9UQD0 [3] it was 0.0192 µM; with hNav1.7 (human), Q15858 [4] it was 0.0269 µM.

GNDCLGFWSACNPKNDKCCANLVCSSKHKWCKGKL (modifications not checked) [Hs1a-FL]: the IC50, patch clamp on HEK293 cells is 0.0194 µM with hNav1.1 (human), P35498; 0.0812 µM with hNav1.2 (human), Q99250; 0.107 µM with hNav1.3 (human), Q9NY46; above 3 µM with hNav1.4 (human), P35499; above 3 µM in the test with hNav1.5 (human), Q14524; 0.0192 µM with hNav1.6 (human), Q9UQD0 [2]. Further, in the test with hNav1.7 (human), Q15858 [1], the IC50, patch clamp on HEK293 cells was 0.0269 µM.

A word on the IC50: it is the point on the concentration scale where inhibition reaches its midpoint. The low end stands for greater potency, the high end for weaker potency.
